Measured values reported in US12329823B2 (The Scripps Research Institute, priority 2021, dated 2025).
Like-named read-outs stand apart in the source and are kept apart here.

Columns and labels:
[1] = molecular target: cynomolgous monkey GLP1R (Macaca fascicularis, UniProt F8V479); assay: In vitro potency, cynomolgous monkey GLP1R activation (receptor-mediated cAMP synthesis); format: cell-based; conditions: Table 12; read-out: In Vitro Potency GLP1R EC50, Cyno
Method: (§1) GLP-1R-CRE or HEK293-GIPR-CRE cells were seeded in 384-well plates at a density of 5000 cells per well and cultured for 18 h in DMEM with 10% FBS at 37° C. and 5% CO2. Cells were treated with peptides in a dose dependent manner for 24 h, and receptor activation was reported by luminescence intensities, using One-Glo (Promega, WI) luciferase reagent following manufacturer's instruction. The EC50 of each peptide was determined using GraphPad Prism 6 software (GraphPad, San Diego, CA). Results are depicted in FIGS. 6A-6B, FIGS. 7A-7B, FIGS. 8A-8B, FIGS. 9A-9B, and Tables 7-12. Measurements of peptide conjugate potency were expressed as half maximal effective concentration (EC50) values.

[2] = molecular target: T1, dog GLP1R (Canis lupus familiaris, UniProt A0A8I3NUR9); assay: In vitro potency, dog GLP1R activation (receptor-mediated cAMP synthesis); format: cell-based; conditions: Table 12
T1 sequence (A0A8I3NUR9 1-464): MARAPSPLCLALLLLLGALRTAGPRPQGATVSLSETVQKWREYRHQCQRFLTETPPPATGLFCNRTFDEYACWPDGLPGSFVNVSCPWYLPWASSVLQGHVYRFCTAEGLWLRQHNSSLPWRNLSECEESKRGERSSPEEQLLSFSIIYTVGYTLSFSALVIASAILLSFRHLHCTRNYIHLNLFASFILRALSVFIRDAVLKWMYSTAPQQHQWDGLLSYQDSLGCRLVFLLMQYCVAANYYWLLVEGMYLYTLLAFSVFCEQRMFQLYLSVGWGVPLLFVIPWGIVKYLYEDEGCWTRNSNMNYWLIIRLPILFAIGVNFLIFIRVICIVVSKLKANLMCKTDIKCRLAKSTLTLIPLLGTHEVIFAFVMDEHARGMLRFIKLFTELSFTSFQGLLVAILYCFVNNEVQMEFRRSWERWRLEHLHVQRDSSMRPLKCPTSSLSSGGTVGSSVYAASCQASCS
Method: as §1

[3] = in vivo; conditions: dog
[4] = Pharmacokinetics in CD-1 mouse, I.V. or S.C. 1 mg/kg, plasma concentration by LC-MS; conditions: for AUC(0-inf): AUCINF; for MRT last: MRTLAST; for half-life: T1/2, Table 14;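 as to all read-outs here: peptide levels in plasma quantified by LC-MS across multiple sampling times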
Method: The peptide plasma concentration at various time points was determined using LC-MS.

[5] = molecular target: human GLP-1R (Homo sapiens, UniProt P43220); assay: In vitro receptor activation reporter assay (CRE-Luc, HEK293-GLP-1R-CRE cells; receptor-mediated cAMP synthesis); format: cell-based; parameters: expressed in transfected cells; host or cells: HEK293 (CRE-HEK293, HEK293-GLP-1R-CRE)
Method: HEK293 cells were infected with lentivirus encoding firefly luciferase gene under the control of cAMP responsive element (CRE) promoter (Qiagen, The Netherlands) and then were selected using 1 μg mL^−1 puromycin (Life Technologies, Carlsbad) for 1 week. The surviving cells (referred to as CRE-HEK293) were expanded and then transfected with a G418 selective mammalian expression plasmid encoding human GLP-1R or GIPR. In brief, GLP-1R or GIPR plasmid was transfected into CRE-HEK293 cells using Lipofectamine 2000 and selected with 400 μg mL^−1 Geneticin (Life Technologies, Carlsbad, CA). Single colony stable cell line overexpressing CRE-luciferase and GLP-1R or GIPR (HEK293-GLP-1R-CRE or HEK293-GIPR-CRE) was then established for in vitro activity assay.
HEK293 cells were infected with lentivirus encoding firefly luciferase gene under the control of cAMP responsive element (CRE) promoter (Qiagen, The Netherlands) and then were selected using 1 μg/mL puromycin (Life Technologies, Carlsbad) for 1 week. The surviving cells (referred to as CRE-HEK293) were expanded and then transfected with a G418 selective mammalian expression plasmid encoding human GLP-1R. In brief, GLP-1R plasmid was transfected into CRE-HEK293 cells using Lipofectamine 2000 and selected with 400 μg/mL Geneticin (Life Technologies, Carlsbad, CA). Single colony stable cell line overexpressing CRE-luciferase and GLP1R was then established for in vitro activity assay.

[6] = mouse, in vivo, iv, 1 mg/kg, Table 14, IV 1 mg/kg
[7] = mouse, in vivo, sc, 1 mg/kg, Table 14, SC 1 mg/kg

Chain of human GLP-1R (P43220 24-463): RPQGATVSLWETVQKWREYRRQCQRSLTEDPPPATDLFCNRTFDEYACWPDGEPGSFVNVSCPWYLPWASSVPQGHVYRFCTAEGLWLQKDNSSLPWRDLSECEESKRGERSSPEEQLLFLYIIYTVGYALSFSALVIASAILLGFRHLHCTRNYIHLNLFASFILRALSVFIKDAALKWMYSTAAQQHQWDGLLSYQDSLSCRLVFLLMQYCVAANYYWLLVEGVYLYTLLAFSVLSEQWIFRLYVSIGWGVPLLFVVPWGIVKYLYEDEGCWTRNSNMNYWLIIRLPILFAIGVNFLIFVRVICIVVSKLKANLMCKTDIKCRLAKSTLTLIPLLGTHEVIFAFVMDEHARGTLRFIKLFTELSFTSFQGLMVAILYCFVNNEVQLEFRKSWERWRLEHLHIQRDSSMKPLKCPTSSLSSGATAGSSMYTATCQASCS
Chain of cynomolgous monkey GLP1R (F8V479 24-463): as the sequence (P43220 24-463) above, with S112N, F120S, S202G, L205V, L237F, W241R, I249V counted along it

**Q.** Which results are given for `CC[C@H](C)[C@H](NC(=O)[C@H](CC(C)C)NC(=O)[C@H](Cc1c[nH]c2ccccc12)NC(=O)[C@@H]1CSCC(=O)NCCN(C(=O)CCC(=O)NCCOCCOCCC(=O)NCCOCCOCCC(=O)NCCCC[C@H](NC(=O)CCCCCCCCCCCCCCCCCCC(=O)O)C(=O)O)CCNC(=O)CSC[C@H](NC(=O)[C@H](CCCCN)NC(=O)[C@H](CC(=O)O)NC(=O)[C@H](CC(C)C)NC(=O)[C@H](Cc2ccc(O)cc2)NC(=O)[C@@H](NC(=O)[C@H](CO)NC(=O)[C@H](Cc2ccc(O)cc2)NC(=O)[C@H](CC(=O)O)NC(=O)[C@H](CO)NC(=O)[C@@H](NC(=O)[C@H](Cc2ccccc2)NC(=O)[C@@H](NC(=O)CNC(=O)[C@H](CCC(=O)O)NC(=O)C(C)(C)NC(=O)[C@@H](N)Cc2ccc(O)cc2)[C@@H](C)O)[C@@H](C)O)[C@@H](C)CC)C(=O)N[C@@H](C)C(=O)N[C@@H](C)C(=O)NC(C)(C)C(=O)N[C@@H](CCC(=O)O)C(=O)N[C@@H](Cc2ccccc2)C(=O)N[C@@H](C(C)C)C(=O)N1)C(=O)N[C@@H](C)C(=O)NCC(=O)NCC(=O)N1CCC[C@H]1C(=O)N[C@@H](CO)C(=O)N[C@@H](CO)C(=O)NCC(=O)N[C@@H](C)C(=O)N1CCC[C@H]1C(=O)N1CCC[C@H]1C(=O)N1CCC[C@H]1C(=O)N[C@@H](CO)C(N)=O` [mCMV268]?
**A.** EC50 [1]: 0.22 nM; EC50 [2]: 1.48 nM; AUC(0-t) ([3]; iv): 59.2 µg·h/mL; Cmax ([3]; iv): 8.5 µg/mL; T last ([3]; iv): 168 h; Tmax ([3]; iv): 0.693 h; Vd ([3]; iv): 0.0957 L/kg; clearance ([3]; iv): 1.09 mL/h/kg; half-life ([3]; iv): 63.9 h; AUC(0-t) ([3]; po): 1.7 µg·h/mL; Cl ([3]; po): 1300 mL/h/kg; Cmax ([3]; po): 0.0314 µg/mL; T last ([3]; po): 144 h; Tmax ([3]; po): 1 h; bioavailability ([3]; po): 0.27%, 0.27%,; half-life ([3]; po): 77.8 h; bioavailability ([4]; CD-1, mouse, plasma, sc, 1 mg/kg): 64%; Cl ([4]; Table 14, SC 1 mg/kg): 4.8 mL/h/kg; Vd ([4]; Table 14, SC 1 mg/kg): 0.087 L/kg; clearance ([4]; mouse, in vivo, iv, 1 mg/kg): 3 mL/h/kg; AUC(0-t) ([4]; mouse, in vivo, iv, 1 mg/kg, AUC0-24, Table 14, IV 1 mg/kg): 204 µg·h/mL; AUC(0-inf) [4, 6]: 327 µg·h/mL; AUC(0-t) ([4]; mouse, in vivo, iv, 1 mg/kg, AUCLAST, Table 14, IV 1 mg/kg): 315 µg·h/mL; Cmax [4, 6]: 34 µg/mL; MRT last [4, 6]: 19.5 h; half-life ([4]; mouse, in vivo, iv, 1 mg/kg, IV 1 mg/kg): 14.8 h; Tmax [4, 6]: 0.5 h; Vd ([4]; mouse, in vivo, iv, 1 mg/kg, Vd, Table 14, IV 1 mg/kg): 0.067 L/kg; AUC(0-t) ([4]; mouse, in vivo, sc, 1 mg/kg, AUC0-24, Table 14, SC 1 mg/kg): 92.1 µg·h/mL; AUC(0-inf) [4, 7]: 208 µg·h/mL; AUC(0-t) ([4]; mouse, in vivo, sc, 1 mg/kg, AUCLAST, Table 14, SC 1 mg/kg): 200 µg·h/mL; Cmax [4, 7]: 4.78 µg/mL; MRT last [4, 7]: 27.8 h; half-life ([4]; mouse, in vivo, sc, 1 mg/kg, SC 1 mg/kg): 12.8 h; Tmax [4, 7]: 24 h; EC50 ([5]; In Vitro Potency GLPIR EC50, 10% FBS, Table 11, human, 10% FBS): 1.96 ± 0.46 nM; EC50 ([5]; unnumbered table, average of runs, read-out: EC50 GLP1R average): 0.03 nM; EC50 ([5]; unnumbered table, run 02/19, read-out: EC50 GLP1R 02/19): 0.02 nM; EC50 ([5]; unnumbered table, run 3/25, read-out: EC50 GLP1R 3/25): 0.03 nM; EC50 ([5]; unnumbered table, run 03/26, read-out: EC50 GLP1R 03/26): 0.03 nM
